Measurements published in patent US20250170257A1 (NANOLATTIX BIOTECHNOLOGY, published 2025).
Each block holds one binder with its values, some of them ahead of it.

Tests used:
tissue factor [1] = biological target: T1, tissue factor (UniProt P13726 33-251, limits assumed); test: SPR (Biacore S200), antibody amine-coupled on CM5 chip, tissue factor as analyte 1.125-18 nM; MAb02
T1 construct: also called TF; antigen tissue factor
From the text: (§1) The humanized anti-tissue factor antibody was coupled to the 2nd channel on the surface of the CM5 chip via amino groups, the 1st and the 3rd channels were used as reference channels, the tissue factor flew through the chip surface as the analyte (mobile phase). […] The Kinetics/Affinity program of Bicore S200 was run to measure the affinity.

tissue factor [2] = biological target: T1, tissue factor; test: SPR (Biacore S200), same method, tissue factor as analyte 12.5-200 nM; parent antibody before modification; tissue factor 12.5-200 nM
From the text: as §1

tissue factor [3] = biological target: T1, tissue factor; test: SPR (Biacore S200), antibody amine-coupled on CM5 chip, tissue factor as analyte 1.125-18 nM; MAb01
From the text: as §1

T1 sequence (P13726 33-251 limits assumed): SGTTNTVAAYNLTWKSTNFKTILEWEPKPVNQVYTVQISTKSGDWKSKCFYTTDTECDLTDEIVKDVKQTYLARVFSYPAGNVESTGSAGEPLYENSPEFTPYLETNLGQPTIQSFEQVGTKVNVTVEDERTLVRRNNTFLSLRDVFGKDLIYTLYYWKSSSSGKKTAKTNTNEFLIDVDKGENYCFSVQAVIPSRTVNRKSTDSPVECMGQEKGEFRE

Kd (tissue factor [1]): 1 nM
B1: humanized anti-tissue factor antibody MAb02 (antibody, V domains shown)
VH: QIQLVQSGPEVVKPGASVRVSCKGSGYSFTDYNIYWVRQSPAKGLEWIGYIDPYNGLTIYDQNFRAKATLSVDHSTSNAYMEINSLRYEDTAVYFCARDVTSALEFWGQGTSVTVSS
VL: DIQMTQSPASISASVGERVTITCLGSQTIDTYLAWYLQKPGRSPQLLIYAATQLADGVPSRFSASGSGTDFSLTISSLQPEDVATYYCQNVYSSPFTFGQGNKLEIKR
notes: Full heavy chain (449 aa) and light chain (214 aa), expressed in CHO-dhfr- cells

Kd (tissue factor [2]): 33.7 nM
B2: humanized antibody against tissue factor before modification (CN 107446047A) (antibody, V domains shown)
VH: EVQLQQSGPELVKPGASVKVSCKASGYTFTHFNVYWVRQSPGKGLEWIGYIDPDNGITFYDENFMGKATLTVDKSSSTAYMQLNSLTSEDSAVYYCARDVTTAVDFWGQGTTLTVSS
VL: DIQMTQSPSSLSASVGDRVTITCLATQTLDTWLAWYQQKPGKAPQLLIYAATYLADGVPSRFSGSGSGTDFTFTISSLQPEDFATYYCQLVYSSPSTFGQGTKLEIK
notes: also called humanized antibody before modified

Kd (tissue factor [3]): 0.357 nM
B3: humanized anti-tissue factor antibody MAb01 (antibody, V domains shown)
VH: QIQLVQSGPELVKPGASVQVSCKTSGYSFTDYNVYWVRQSPAKGIEWIGYIDPYNGLTIYEQNFRGKGTLSLDHSTSTAYMELNSLRYEDTAVYFCARDVTTALDFWGQGTSVTVSS
VL: DIQMTQSPASISASIGERVTITCLASQTIDTWLAWFLQKPGRSPNLLIYAATNLADGVPYRFSASGSGNDFSLTISSLNPEDVATYYCQQVYSSPFTFGQGNKLEIRR
